For four molecules, Kd and IC50 results are on record in patent US20050101770A1 (SCHERING, published 2005).

Changes are numbered by the printed parent chain.

For orientation: Kd means a measure of binding affinity in units of concentration. The IC50 is the midpoint of a concentration-inhibition curve.

T1: recombinant mouse IL-10 (mIL-10) (mouse, UniProt P18893 19-178)
T1 sequence (looked up): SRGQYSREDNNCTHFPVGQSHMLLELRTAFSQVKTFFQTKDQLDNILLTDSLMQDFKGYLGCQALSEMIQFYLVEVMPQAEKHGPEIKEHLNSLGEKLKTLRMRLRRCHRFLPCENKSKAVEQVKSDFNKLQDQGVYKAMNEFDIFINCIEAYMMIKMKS

T2: recombinant hIL-10Ra (hIL-10Ra): FLAG-tagged protein (human, UniProt Q13651 22-235)
T2 construct: The order of the receptor part and the FLAG tag is unknown; also called huIL-10Ra; not shown: FLAG tag
T2 sequence (looked up): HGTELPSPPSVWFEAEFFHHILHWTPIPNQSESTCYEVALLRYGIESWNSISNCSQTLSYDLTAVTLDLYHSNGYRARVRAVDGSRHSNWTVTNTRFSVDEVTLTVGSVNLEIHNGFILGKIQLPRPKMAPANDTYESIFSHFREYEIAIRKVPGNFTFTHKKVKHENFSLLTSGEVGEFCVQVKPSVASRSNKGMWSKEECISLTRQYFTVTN

B1: Monoclonal humanized antibody SCH 708980 to recombinant human IL-10 (humanized 12G8) (antibody, human IgG1, kappa, V domains shown)
VH: QVQLVESGGGVVQPGRSLRLSCAASGFTFSDYHMAWVRQAPGKGLEWVASITLDATYTYYRDSVRGRFTISRDNSKNTLYLQMNSLRAEDTAVYYCARHRGFSVWLDYWGQGTLVTVSS
VL: DIQMTQSPSSLSASVGDRVTITCKTSQNIFENLAWYQQKPGKAPKLLIYNASPLQAGVPSRFSGSGSGTDFTLTISSLQPEDFATYYCHQYYSGYTFGPGTKLELKR
notes: also called h12G8; hu12G8
B2: rat anti hIL-10 mAb 12G8 (r12G8): JES3.12G8 (antibody, V domains shown)
VH: EVQLVESGGGLVRPGGSLRLSCTASGFTFSDYHMAWVRQSPDKGLEWVASITLDATYTYYRDSVRGRFTISRNNAKTTLYLQMDSLRSEDTATFYCTRHRGFSVWLDYWGQGVMVTVSS
VL: DIQMTQSPSLLSASVGDRVTLNCKTSQNIFENLAWYQQKLREPPKLLIFNASPLQAGIPSRFSGSGSGTDFTLTITSLQPEDVATYFCHQYYSGYTFGPGTKLELKR
notes: Rat monoclonal antibody; also called Rat 12G8; JES.12G8
B3: recombinant cyno IL-10 (cyno IL-10) (ligand, UniProt P79338 19-178, looked up)
chain: SPGQGTQSENSCTRFPGNLPHMLRDLRDAFSRVKTFFQMKDQLDNILLKESLLEDFKGYLGCQALSEMIQFYLEEVMPQAENHDPDIKEHVNSLGENLKTLRLRLRRCHRFLPCENKSKAVEQVKNAFSKLQEKGVYKAMSEFDIFINYIEAYMTMKIRN
B4: recombinant human IL-10 dimer (hIL-10-dimer) (ligand, UniProt P22301 19-178, looked up)
chain: B3 chain with R14H, H21N, I46L, H83Q, E89A, S129N, V136I
notes: also called hu IL-10

In assay [1] the target is B4. Description: KinExA, solution equilibrium, hIL-10 run #2. Here is the method:
(§1) The equilibrium dissociation constant (Kd) for humanized antibody SCH 708980 was determined using KinExA 3000 (Sapidyne Instruments Inc.). KinExA uses the principle of the Kinetic Exclusion Assay method based on measuring the concentration of uncomplexed antibody in a mixture of antibody, antigen and antibody-antigen complex. The concentration of free antibody was measured by exposing the mixture to a solid-phase immobilized antigen for a very brief period of time. In practice, this was accomplished by flowing the solution phase antigen-antibody mixture past antigen coated particles trapped in a flow cell. Data generated by the instrument were analyzed using custom software. Equilibrium constants were calculated using a mathematical theory based on the following assumptions: [0139] 1. The binding follows the reversible binding equation for equilibrium: Kₒₙ[Ab][Ag]=Koff[AbAg] [0140] 2. Antibody and antigen bind 1:1, and total antibody equals antigen-antibody complex plus free antibody [0141] 3. Instrument signal is linearly related to free antibody concentration
(§2) Experimental conditions: All runs were done in duplicate. For hIL-10 runs the following conditions were used: [0145] Sample volume: 1.5 ml [0146] Sample flow rate: 0.25 ml/min [0147] Label volume: 0.5 ml [0148] Label flow rate: 0.25 ml/min [0149] mAb conc.: 0.1 nM [0150] Highest Ag (hlL-10) conc.: 4.0 nM [0151] […]
In general terms: Kinetic exclusion samples the free partner from a solution-phase mixture.

Assay [2] concerns the target T1, recombinant mouse IL-10 (mIL-10). In words: KinExA, solution equilibrium, mIL-10 run #3. The procedure: as §1
(§3) For mIL-10 runs the following conditions were used: [0154] […] Sample flow rate: 0.25 ml/min [0156] Label volume: 0.5 ml [0157] Label flow rate: […] [0158] mAb conc.: 1 nM [0159] Highest Ag (mIL-10) conc.: 50 nM [0160] Lowest Ag (mIL-10) conc.: 48.8 pM […]

Assay [3] has as its target B3. Description: KinExA, solution equilibrium, cyno IL-10 run #3. Here is the method:
as §1
(§4) For cyno IL-10 runs the following conditions were used: [0163] Sample volume: 2 ml [0164] Sample flow rate: 0.25 ml/min [0165] Label volume: 1 ml [0166] Label flow rate: 0.25 ml/min [0167] mAb conc.: 0.1 nM [0168] Highest Ag (mIL-10) conc.: 5.0 nM [0169] Lowest Ag (mIL-10) conc.: 4.88 pM […]

For assay [4], the target named is B3. In words: KinExA, solution equilibrium, cyno IL-10 run #2. Here is the method: as §1, §4
Assay [5] deals with T1, recombinant mouse IL-10 (mIL-10). Description: Biacore, mean ± S.D. (n); format not described.
Assay [6] has as its target B4. Description: Biacore, mean ± S.D. (n); format not described. (In SPR one partner is held on a chip, and binding of the other changes the refractive index at the surface.)
Assay [7] deals with B3. Description: Biacore, mean ± S.D. (n); format not described.
The target in assay [8] is B4. Description: KinExA, solution equilibrium, hIL-10 run #1. The procedure:
as §1, §2

The target in assay [9] is T1, recombinant mouse IL-10 (mIL-10). Description: KinExA, mean ± S.D. (n) of the runs of Table 14.
Assay [10] deals with B4. In words: KinExA, mean ± S.D. (n) of the runs of Table 14.
Assay [11] deals with B3. In words: KinExA, mean ± S.D. (n) of the runs of Table 14.
Assay [12] has as its target B3. Description: KinExA, solution equilibrium, cyno IL-10 run #1. The procedure: as §1, §4
Assay [13] deals with T1, recombinant mouse IL-10 (mIL-10). In words: KinExA, solution equilibrium, mIL-10 run #1. The procedure: as §1, §3
The target is the same in assay [14]. Description: KinExA, solution equilibrium, mIL-10 run #2. Here is the method:
as §1, §3

In assay [15] the target is B4. In words: KinExA, solution equilibrium, hIL-10 run #3. The procedure:
as §1, §2

For assay [16], the target named is B4. In words: KinExA, mean (n).
The target of assay [17] is B1. Description: competitive ECLA (IGEN): unlabeled IL-10 varied, competitor hIL-10-biotin. The text has this:
(§5) Materials used. 96 well Polypropylene plates (Costar, Cat. No. 3365, Fisher Sci. Cat. No. 07200697); assay buffer of 0.1% BSA, 0.05% tween 20, PBS pH 7.5; paramagnetic beads (Streptavidin-Dynabeads, Igen, Inc., Cat. No. 110029); recombinant human IL-10 dimer (hIL-10-dimer); recombinant human IL-10-monomer (hlL-10-mono); recombinant mouse IL-10 (mIL-10); recombinant cyno IL-10 (cyno IL-10); and recombinant hIL-10Ra (hL-10Ra): FLAG-tagged protein. Ori-Tag labeled anti-FLAG M2 monoclonal antibodies were prepared using Ori-Tag-NHS ester (Igen, Inc. Cat. No. 110034) according to manufacturer's protocol (OriTag label: IgG challenge ratio 8:1). Anti-Flag M2 monoclonal antibodies were purchased from Sigma (Cat. No. F3165). Ori-Tag labeled anti hIgG 1A2 monoclonal antibodies were prepared as above using rat anti hIgG monoclonal antibodies. Ori-Tag labeled anti rat IgG antibodies were prepared as above from polyclonal Goat anti rat IgG (H+L) antibodies (Jackson Immunoresearch Laboratories, Inc. PA, Cat. No. 112-005-143). Biotinylated recombinant human IL-10 (hIL-10-biotin) was prepared using TFP-PEO-biotin (Pierce, Cat. No. 21219) according to manufacturer's recommendations (Pierce bulletin 0874). The rat anti hIL-10 mAb 12G8 (r12G8): JES3.12G8 and humanized anti hIL-10 mAb 12G8 (hl2G8-1) were prepared as described herein.
(§6) Protocol. ⅓ serial dilutions in 50 microliters of the assay buffer were made in 96-well microtiter plate for all unlabeled IL-10 preparations (mIL-10, cyno IL-10, hIL-10 dimer, hIL-10 mono) starting with 3 μg/ml in the first well. All samples were run in duplicates. 50 μl of hIL-10-biotin at 25 ng/ml was added to each well, followed by the addition of either hIL-10Ra (50 μl at 100 ng/ml) or […] (50 μl at 10 ng/ml). 50 microliters of Ori-Tag conjugated secondary antibodies was added to each well at 500 ng/ml conc. For hIL-10Ra, r12G8 and h12G8 the following Ori-Tag conjugated were used accordingly: anti-FLAG M2-OriTag, anti-rat IgG-OriTag and anti hIgG 1A2-OriTag. Finally to each well 50 μl of Streptavidin-Dynabeads at 0.1 mg/ml was added. After a one hour incubation at room temperature the plate was processed by the M-series M8/384 analyzer. Percent inhibition of the signal by unlabeled IL-10 preparations was calculated relative to the control samples. To plot the data and calculate IC₅₀ the GraphPad Prism Software was used.

Assay [18] addresses T2, recombinant hIL-10Ra (hIL-10Ra): …. The assay is described as above.
From the text: as §5, §6

Assay [19] deals with B2. The assay is described as above.
From the text: as §5, §6

Assay [20] deals with B1. In words: IGEN competitive ECLA, mean ± S.D. (n); summary of Table 15.
From the text: as §5, §6

Assay [21] concerns the target B2. The description is as above.
From the text: as §5, §6

B1: the Kd in assay [1] is 0.0323 nM; in assay [2], 0.308 nM; in assay [3], 0.0925 nM; in assay [4] it was 0.0966 nM; in assay [5], 8.6 nM; in [6], 0.511 nM. In addition, the dissociation constant Kd was found to be 0.659 nM in [7]; 0.0274 nM in assay [8]; 0.286 nM in assay [9]; 0.025 nM in [10]; 0.076 nM in [11]; 0.0397 nM in [12]. For the same molecule, the Kd stood at 0.282 nM in [13], 0.267 nM in assay [14] and 0.0155 nM in assay [15].
With B2, the Kd came to 0.023 nM in assay [16], 7.4 nM in [5], 0.277 nM in [6] and 0.33 nM in assay [7].
B3: the half-maximal inhibitory concentration (IC50) in assay [17] amounted to 4.9 nM; in assay [18], 17.6 nM; in [19] it was 6.6 nM; in assay [20], 4.9 nM; in assay [21], 6.6 nM.
As for B4, the half-inhibitory concentration (IC50) in assay [17] was found to be 4 nM; in assay [18], 2.9 nM; in assay [19] it was 4.7 nM; in assay [20], 4 nM; in assay [21], 4.7 nM.
